Experimental data published in patent US20250161356A1.
One block for each substance: values may come before it.

How the values were obtained:
[1] = molecular target: full-length human BTN3A1 on transfected cells (human) (UniProt O00481); test: flow cytometry, γδTCR tetramer-PE on BTN3A1+ NIH-3T3 cells, isotype (IgG1κ)-treated (black number), GFP+ gate; SAv ctl 28
[2] = molecular target: BTN2A1-BTN3A1 complex peptide on (human); test: PE-labelled BTN2A1-BTN3A1 complex tetramer on BTN2A.BTN3A-knockout HEK293T cells transfected with the TCR and CD3; reduced against WT G115; full-length, on cells
[3] = molecular target: G115 Vγ9Vδ2+ TCR Glu52δ-Ala on transfected HEK293T cells (human); test: flow cytometry, tetramer-PE versus CD3-APC on HEK293T cells co-transfected with CD3 and G115 Glu52δ-Ala TCR; SAv ctl 32
[4] = molecular target: G115 Vγ9Vδ2+ TCR wild-type, full-length, on transfected HEK293T cells (human); test: flow cytometry, tetramer-PE versus CD3-APC on HEK293T cells co-transfected with CD3 and G115 WT TCR; SAv ctl 27
[5] = molecular target: BTN2A1 on transfected cells (human) (UniProt Q7KYR7); test: flow cytometry, control tetramer-PE on BTN2A1+ NIH-3T3 cells, mAb 20.1-treated (grey number), GFP+ gate; SAv ctl 22
Chain of BTN2A1 on transfected cells (human) (Q7KYR7 29-527 limits assumed): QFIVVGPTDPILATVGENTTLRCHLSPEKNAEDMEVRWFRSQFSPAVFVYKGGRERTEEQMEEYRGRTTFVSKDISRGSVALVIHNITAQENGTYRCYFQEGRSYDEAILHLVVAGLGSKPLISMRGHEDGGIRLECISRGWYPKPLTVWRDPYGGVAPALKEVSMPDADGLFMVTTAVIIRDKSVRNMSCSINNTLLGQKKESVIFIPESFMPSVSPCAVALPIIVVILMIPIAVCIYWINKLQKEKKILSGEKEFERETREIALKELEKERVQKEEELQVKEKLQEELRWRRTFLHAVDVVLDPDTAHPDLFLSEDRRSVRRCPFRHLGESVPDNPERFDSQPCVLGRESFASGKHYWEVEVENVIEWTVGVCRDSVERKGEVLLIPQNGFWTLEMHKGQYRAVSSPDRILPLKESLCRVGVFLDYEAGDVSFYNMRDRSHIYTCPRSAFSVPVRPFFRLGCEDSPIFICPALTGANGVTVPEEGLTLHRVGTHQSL

[6] = molecular target: full-length human BTN3A1 on transfected cells (human) (UniProt O00481); test: flow cytometry, control tetramer-PE on BTN3A1+ NIH-3T3 cells, isotype (IgG1κ)-treated (black number), GFP+ gate; SAv ctl 25
[7] = molecular target: G115 Vγ9Vδ2+ TCR His85γ-Ala on transfected HEK293T cells (human); test: flow cytometry, tetramer-PE versus CD3-APC on HEK293T cells co-transfected with CD3 and G115 His85γ-Ala TCR; SAv ctl 27
Chain of G115 Vγ9Vδ2+ TCR His85γ-Ala on transfected HEK293T cells (human) (TCR delta, as listed by the source, chain 1 of 2): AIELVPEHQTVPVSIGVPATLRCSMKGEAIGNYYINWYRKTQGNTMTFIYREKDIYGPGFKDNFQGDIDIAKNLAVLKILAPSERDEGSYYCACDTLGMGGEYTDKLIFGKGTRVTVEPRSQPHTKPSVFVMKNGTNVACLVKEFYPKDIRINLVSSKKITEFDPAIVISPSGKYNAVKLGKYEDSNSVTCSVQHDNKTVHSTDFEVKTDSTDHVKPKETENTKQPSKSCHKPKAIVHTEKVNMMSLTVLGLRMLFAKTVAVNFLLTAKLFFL
Chain of G115 Vγ9Vδ2+ TCR His85γ-Ala on transfected HEK293T cells (human) (TCR gamma, as listed by the source, chain 2 of 2): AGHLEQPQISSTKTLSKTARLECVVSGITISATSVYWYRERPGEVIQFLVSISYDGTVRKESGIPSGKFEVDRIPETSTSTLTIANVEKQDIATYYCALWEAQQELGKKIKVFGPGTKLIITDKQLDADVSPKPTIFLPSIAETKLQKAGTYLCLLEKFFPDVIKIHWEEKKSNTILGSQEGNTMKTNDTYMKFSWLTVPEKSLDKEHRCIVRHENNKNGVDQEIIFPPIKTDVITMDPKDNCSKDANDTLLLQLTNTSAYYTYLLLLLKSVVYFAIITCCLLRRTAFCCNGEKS

[8] = molecular target: G115 Vγ9Vδ2+ TCR Lys53δ-Ala on transfected HEK293T cells (human); test: flow cytometry, tetramer-PE versus CD3-APC on HEK293T cells co-transfected with CD3 and G115 Lys53δ-Ala TCR; SAv ctl 27
[9] = molecular target: BTN2A1-BTN3A1-zipper ectodomain complex (wild type) (human) (UniProt Q7KYR7); test: flow cytometry, complex tetramer MFI on transfected BTN2A.BTN3A KO HEK293T cells; mean ± SEM; control

- MFI of PE [1]: 24
Substance: chimeric γδTCR tetramer: G115 Vγ9+ γ-chain with 9C2 Vδ1+ δ-chain

- fold change of tetramer MFI against WT G115 TCR [2]: 0.7 fold
Substance: G115 Vγ9Vδ2+ TCR K53E

- median fluorescence of PE [3]: 28
- median fluorescence of PE [4]: 20
- MFI of PE [5]: 20
- MFI of PE [6]: 32
- median fluorescence of PE [7]: 22
- median fluorescence of PE [8]: 23
Substance: mCD1d tet. ctl

- fold change of tetramer MFI against WT G115 TCR [2]: 0.8 fold
Substance: G115 Vγ9Vδ2+ TCR K53D

- fold-change of BTN2A1-BTN3A1 complex tetramer MFI relative to WT G115 TCR [9]: 0.3 fold
Substance: CD3 complex on HEK293T cells transfected with CD3 only (receptor)
